Here are results for one molecule from US7442375B2, “Compositions of beta-defensin inducing agents” (Case Western Reserve University, priority 2002, dated 2008).

Common to all, as to type: cell-based
Assay [1] deals with CCR5 (Homo sapiens, UniProt P51681). Kind of assay: Flow cytometric analysis of co-receptor surface expression on unstimulated PBMC. Set-up: endogenous in cells; host or cells: unstimulated peripheral blood mononuclear cells (PBMC). The conditions noted are these: 30 μg/ml, 3 h, high salt medium without FBS. Here is the method: (§1) Unstimulated PBMC were treated for 3 hrs with hBD-1, -2, or -3 (30 μg/ml) in DMEM (high salt) in the absence of FBS. The CXCR4 natural ligand SDF-1AE (2 μg/ml) and the CCR5 antagonist PSC-RANTES (100 nM) were used as positive controls. CXCR4 and CCR5 surface expression was calculated using known ratios of QuantiBRITE-PE beads (Becton Dickenson) by flow cytometry. Results are the means of seven experiments±SD.
CCR5, sequence (P51681 whole entry): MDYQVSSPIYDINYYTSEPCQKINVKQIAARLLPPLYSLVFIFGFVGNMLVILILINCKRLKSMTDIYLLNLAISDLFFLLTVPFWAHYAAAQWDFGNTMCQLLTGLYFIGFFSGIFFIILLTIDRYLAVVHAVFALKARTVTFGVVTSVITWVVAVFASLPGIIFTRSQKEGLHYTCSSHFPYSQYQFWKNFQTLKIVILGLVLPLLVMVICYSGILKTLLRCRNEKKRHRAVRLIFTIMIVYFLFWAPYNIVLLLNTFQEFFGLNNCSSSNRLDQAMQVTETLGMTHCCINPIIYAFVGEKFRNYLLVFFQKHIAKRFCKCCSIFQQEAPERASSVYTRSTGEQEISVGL
(§2) Unstimulated PBMC were treated with 30 μg/ml hBD-1, -2, or -3 in high salt medium (RPMI-1640) in the absence of FBS, 3 h. The CXCR4 natural ligand SDF-1α (R&D Systems, Minneapolis, Minn., USA) and the CCR5 antagonist PSC-RANTES were used as controls. Cells were incubated with peridinin chlorophyll protein-conjugated anti-human CD4 antibody, and either phycoerythrin (PE)-conjugated anti-human CXCR4 antibody, PE-conjugated anti-human CCR5 antibody, or PE-conjugated mouse immunoglobulin G2a (IgG2a), isotype standard (PharmMingen, San Diego, Calif., USA) [Salkowitz et al.]. Fluorescence intensity was reported as receptor density by quantitative flow cytometry (FACSCaliber; Becton Dickenson, San Jose, Calif., USA) [Iyer et al.]. Data were analyzed using CELLQuest software (Becton Dickenson).
(§3) Surface expression of CXCR4 was decreased by 51%±18% and 52%±20% (SD) respectively after incubation with 30 μg/ml of hBD-2 or hBD-3 (FIG. 5).
A general note: Flow cytometry measures light scatter and fluorescence of single cells or particles in a stream.

The target in assay [2] is CXCR4 (Homo sapiens, UniProt P61073). The description is as above. Set-up: endogenous in cells; host or cells: unstimulated peripheral blood mononuclear cells (PBMC). The conditions noted are these: 30 μg/ml, 3 h, high salt medium without FBS. How it is done: as §1, §2, §3
CXCR4, sequence (P61073 whole entry): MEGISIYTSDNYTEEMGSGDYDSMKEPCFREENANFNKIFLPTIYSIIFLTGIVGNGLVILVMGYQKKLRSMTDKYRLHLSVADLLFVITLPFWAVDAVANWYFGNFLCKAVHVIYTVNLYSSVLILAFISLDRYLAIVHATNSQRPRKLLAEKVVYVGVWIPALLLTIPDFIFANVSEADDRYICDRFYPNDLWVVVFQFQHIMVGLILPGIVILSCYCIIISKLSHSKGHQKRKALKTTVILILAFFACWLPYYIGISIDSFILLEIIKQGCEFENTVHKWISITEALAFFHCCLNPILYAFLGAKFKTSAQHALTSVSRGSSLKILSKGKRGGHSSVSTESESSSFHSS
The subject of assay [3] is HIV-1 X4 B-HXB2. The conditions noted are these: virus preincubated 1 h with hBD in 10 mM PB; GHOST cells 48 h; GFP fluorescence. How it is done:
(§4) HIV-1 strains (X4 HXB2 and R5 93US142) were incubated in 10 mM PB with increasing concentrations of hBD and used to infect GHOST X4/R5 cells. (a) Qualitative determination of HIV-1 infection, measured by GFP fluorescence, in the absence (−C) and presence (+C) of virus preincubated in 10 mM PB. (b) Anti-HIV-1 activity of hBD in GHOST X4/R5 cells using fluorescence microscopy. (c) Anti-HIV-1 activity of hBD measured by RT activity in cell-free culture supernatant, relative to the positive control (i.e., HIV-1 infection in the absence of hBD). (d) Antiretroviral activity of hBD against CXCR4- and CCR5-tropic HIV-1 strains in three different environments: DMEM+10% FBS (complete medium); DMEM alone (Medium no FBS); 10 mM PB. Viruses were incubated with 20 μg/ml of each hBD for 1 h in each condition and used to infect CEM X4/R5 cells as described. Results are representative of three independent experiments.
(§5) HIV-1 isolates were incubated with increasing concentrations (5-40 μg/ml) of hBD-1, -2, and -3, in three different conditions: high salt complete medium (RPMI-1640 or DMEM supplemented with 10% fetal bovine serum, FBS); high salt medium in the absence of FBS; or low salt medium (10 mM phosphate buffer), 37° C. for 1 h. Respective mixtures were used to infect PBMC, Ghost X4/R5 or CEM X4/R5 cells at an MOI of […]. After 2 h incubation at 37° C., 5% CO2, cells were washed three times with phosphate-buffered saline (PBS) and cultured in complete medium for 48 h. In the case of Ghost X4/R5 cells, these were washed, resuspended in PBS, and analyzed by fluorescence microscopy for GFP expression as described [Morner et al.]. Cell-free supernatants from PBMC, Ghost X4/R5 and CEM X4/R5 cultures were used to monitor infectivity by the reverse transcriptase (RT) assay [Quinones-Mateu et al.]. The 50% inhibitory concentration (IC50) of each hBD was determined using X4 or R5 HIV-1 isolates. Viruses (0.01 MOI) were incubated with increasing concentrations of hBD-1, -2, and 3 (up to 40 µg/ml) in low salt medium for 1 h and used to infect CEM X4/R5 cells. After 2 h incubation at 37° C., 5% CO2, cells were washed twice with PBS and cultured in complete medium. Supernatant samples were removed on day 5 post-infection and virus production was measured using […] the RT assay [Id.]. Cytotoxicity of hBD was quantified by determining the number of viable cells using a tetrazolium-based colorimetric (MTT) assay [Pauwels et al.].
(§6) Since the antibacterial activity of beta-defensins is sensitive to high salt and serum concentrations, the anti-HIV-1 activity of hBD was initially evaluated in a low salt, serum free environment, mimicking oral mucosal conditions [Mandel et al.]. Two HIV-1 isolates (X4 B-HXB2 and R5 B-93US142) were preincubated for 1 h with increasing concentrations of recombinant hBD-1, -2, and -3, in 10 mM phosphate buffer (PB). GHOST CCR5/CXCR4 cells were then exposed to the mixtures for 48 h in complete medium. […] When CXCR4- and CCR5-tropic HIV-1 strains were preincubated with beta-defensins in high salt medium (DMEM) supplemented with 10% FBS, no antiviral effect was detected (FIG. 4d). However, preincubation in DMEM without FBS inhibited replication of X4, but not R5, HIV-1 isolates (FIG. 4d). Under low salt conditions (i.e., 10 mM PB, no FBS) the 50% inhibitory concentration for both agents against X4 and R5 viruses ranged from 9 to 19 μg/ml and 20 to 40 μg/ml, respectively.

The subject of assay [4] is HIV-1 R5 B-93US142. The conditions noted are these: virus preincubated 1 h with hBD in 10 mM PB; GHOST cells 48 h; GFP fluorescence. How it is done:
as §4, §5, §6

B1: hBD-3: Recombinant human β-defensin 3 produced using an hBD-3-His tag fusion construct cloned into pET-30c; exemplary sequence SEQ ID NO:15 (protein, listed as Homo sapiens)
chain: MRIHYLLFALLFLFLVPVPGHGGIINTLQKYYCRVRGGRCAVLSCLPKEEQIGKCSTRGRKCCRRKK
modifications: not fully specified (C-terminus); ends and bridges not checked
As for B1, in assay [1], the “effect on CCR5 expression” value is on record as “not altered”. In assay [2], the “decrease of surface expression of CXCR4 (±SD)” value is recorded as 52%±20%. Also, the anti-HIV-1 activity entry in assay [3] and in assay [4] was “showed anti-HIV-1 activity” each time.
